From publication PMC4328881

Assays:
[1] = target: 22 kDa (196 amino acids) OSM (human) (UniProt P13725); experiment: SPR
[2] = target: full-length 26 kDa (227 amino acids) OSM (human); experiment: SPR

Sequence of 22 kDa (196 amino acids) OSM (human) (P13725 26-221): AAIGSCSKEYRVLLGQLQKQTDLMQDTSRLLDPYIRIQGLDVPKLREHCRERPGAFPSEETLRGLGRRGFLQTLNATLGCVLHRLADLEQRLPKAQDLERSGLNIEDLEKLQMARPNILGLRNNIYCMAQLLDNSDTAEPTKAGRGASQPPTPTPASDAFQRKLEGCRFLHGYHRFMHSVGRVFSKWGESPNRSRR
Sequence of fibronectin, P02751 32-2477 (natural protein; ; other documents disagree on this pair) (P02751 32-2477): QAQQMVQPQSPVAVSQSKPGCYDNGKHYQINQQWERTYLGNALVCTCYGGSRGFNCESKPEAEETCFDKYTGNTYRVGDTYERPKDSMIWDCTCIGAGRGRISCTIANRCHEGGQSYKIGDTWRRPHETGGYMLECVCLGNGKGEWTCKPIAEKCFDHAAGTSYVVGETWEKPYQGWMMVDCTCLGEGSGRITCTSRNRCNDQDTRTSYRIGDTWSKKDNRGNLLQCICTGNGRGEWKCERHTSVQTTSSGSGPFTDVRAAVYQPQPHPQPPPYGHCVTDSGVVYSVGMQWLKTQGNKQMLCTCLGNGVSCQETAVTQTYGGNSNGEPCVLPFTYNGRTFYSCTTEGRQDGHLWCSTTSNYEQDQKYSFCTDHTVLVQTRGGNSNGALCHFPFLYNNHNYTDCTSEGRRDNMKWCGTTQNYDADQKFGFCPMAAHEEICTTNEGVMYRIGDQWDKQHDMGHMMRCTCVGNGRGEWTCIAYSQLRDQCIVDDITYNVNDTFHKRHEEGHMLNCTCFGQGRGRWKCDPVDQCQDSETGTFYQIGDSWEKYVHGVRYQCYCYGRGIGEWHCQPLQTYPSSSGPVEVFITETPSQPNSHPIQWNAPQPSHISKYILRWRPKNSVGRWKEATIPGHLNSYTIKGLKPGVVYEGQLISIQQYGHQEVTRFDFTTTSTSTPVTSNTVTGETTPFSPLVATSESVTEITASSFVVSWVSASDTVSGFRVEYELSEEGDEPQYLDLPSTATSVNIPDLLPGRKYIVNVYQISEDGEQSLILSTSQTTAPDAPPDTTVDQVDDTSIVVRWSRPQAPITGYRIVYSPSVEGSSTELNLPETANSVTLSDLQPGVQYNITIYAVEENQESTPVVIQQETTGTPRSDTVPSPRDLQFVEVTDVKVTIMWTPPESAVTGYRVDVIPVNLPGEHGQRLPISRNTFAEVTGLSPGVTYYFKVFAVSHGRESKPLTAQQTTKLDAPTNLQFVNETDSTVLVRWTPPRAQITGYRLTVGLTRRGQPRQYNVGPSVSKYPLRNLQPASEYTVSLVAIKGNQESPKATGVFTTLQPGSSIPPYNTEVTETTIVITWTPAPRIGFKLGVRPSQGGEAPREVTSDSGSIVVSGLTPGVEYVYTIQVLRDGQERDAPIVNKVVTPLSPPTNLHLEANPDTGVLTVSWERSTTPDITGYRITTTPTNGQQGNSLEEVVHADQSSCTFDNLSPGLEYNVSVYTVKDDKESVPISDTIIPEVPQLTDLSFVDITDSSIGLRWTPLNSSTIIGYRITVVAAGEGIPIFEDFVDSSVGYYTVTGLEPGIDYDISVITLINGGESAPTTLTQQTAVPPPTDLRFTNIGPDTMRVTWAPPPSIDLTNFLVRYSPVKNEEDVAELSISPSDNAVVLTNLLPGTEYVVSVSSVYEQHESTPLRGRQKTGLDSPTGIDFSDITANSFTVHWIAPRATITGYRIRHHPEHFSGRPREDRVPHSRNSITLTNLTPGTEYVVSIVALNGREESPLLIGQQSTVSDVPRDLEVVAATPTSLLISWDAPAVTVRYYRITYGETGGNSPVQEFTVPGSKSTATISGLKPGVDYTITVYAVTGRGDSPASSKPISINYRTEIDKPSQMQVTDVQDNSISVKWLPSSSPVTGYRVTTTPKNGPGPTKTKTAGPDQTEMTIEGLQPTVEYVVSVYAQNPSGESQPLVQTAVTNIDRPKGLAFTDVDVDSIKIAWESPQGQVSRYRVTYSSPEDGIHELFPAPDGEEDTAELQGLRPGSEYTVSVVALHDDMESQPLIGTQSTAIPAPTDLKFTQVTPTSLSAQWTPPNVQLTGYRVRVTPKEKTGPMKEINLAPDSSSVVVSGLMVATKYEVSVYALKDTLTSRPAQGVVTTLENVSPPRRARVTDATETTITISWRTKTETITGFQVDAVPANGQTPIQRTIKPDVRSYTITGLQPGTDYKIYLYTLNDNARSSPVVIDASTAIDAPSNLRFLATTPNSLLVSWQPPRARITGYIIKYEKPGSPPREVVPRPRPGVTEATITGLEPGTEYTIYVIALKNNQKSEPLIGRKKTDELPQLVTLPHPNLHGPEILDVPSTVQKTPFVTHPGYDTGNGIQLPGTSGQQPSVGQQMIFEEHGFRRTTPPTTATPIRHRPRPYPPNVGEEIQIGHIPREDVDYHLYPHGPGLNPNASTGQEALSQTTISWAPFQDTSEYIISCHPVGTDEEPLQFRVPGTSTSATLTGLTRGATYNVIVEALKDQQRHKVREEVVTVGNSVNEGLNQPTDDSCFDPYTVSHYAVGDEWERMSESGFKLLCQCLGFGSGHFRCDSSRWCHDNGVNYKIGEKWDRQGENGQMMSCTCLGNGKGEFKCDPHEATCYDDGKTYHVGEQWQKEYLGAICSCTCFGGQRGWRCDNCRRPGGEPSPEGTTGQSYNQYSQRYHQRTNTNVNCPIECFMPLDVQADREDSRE

Kd [1] [µM] | Kd [2] [µM] | Substance
0.936 | 0.844 | laminin (complex)
 | 1170 | fibronectin, P02751 32-2477 (natural protein; ; other documents disagree on this pair)
